{
  "source": "paper PMC10296094",
  "about": "(Cancers, 2023)",
  "binders": {"B1": {"name": "fluorescein-labelled Sfi1 peptide (peptide)", "peptide": "REVAARESQHNRQLLRGALRRWK", "modifications": "not fully specified (residue 23)", "notes": "Sfi1 (mitotic spindle regulator), human, residues 670-692; also called F-Sfi1"}},
  "target": "T1, His6-tagged human centrin1 (human, UniProt Q12798 1-172)",
  "T1 sequence (looked up)": "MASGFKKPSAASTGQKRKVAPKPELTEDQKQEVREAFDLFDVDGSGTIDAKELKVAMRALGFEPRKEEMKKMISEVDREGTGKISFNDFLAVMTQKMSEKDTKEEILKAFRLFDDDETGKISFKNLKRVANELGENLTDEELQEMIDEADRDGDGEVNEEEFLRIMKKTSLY",
  "assay": "fluorescence polarisation; fluorescence anisotropy; 2-fold dilution series of centrin1, 100 nM Sfi1 peptide; 10 mM HEPES pH 7.4, 100 mM CaCl2, 0.005% v/v Tween 20; 45 min at RT",
  "details": "both partners purified",
  "note": "Where no end group is shown, it is not given here.",
  "data": [
    {"binder": "B1", "values": [
      {"measurement": "Kd", "result": "30 ± 12", "unit": "nM"}
    ]}
  ]
}
